Source: PMC11432383

Key:
[1] = target: SyMRP, MoxR AAA+ ATPase of Synechococcus sp. strain NKBG15041c, with a His-tag at the C-terminus (Synechococcus sp. strain NKBG15041c); experiment: atomic force microscopy; high-speed AFM, sample on Ni2+-coated mica, washed with 50 mM Tris-HCl pH 7.5
[2] = target: SyMRP, MoxR AAA+ ATPase of Synechococcus sp. strain NKBG15041c, with a His-tag at the C-terminus (Synechococcus sp. strain NKBG15041c); experiment: negative-stain transmission electron microscopy; carbon-coated copper grids, 2.5% uranyl acetate, 50,000x, 100 kV
[3] = target: SyMRP, MoxR AAA+ ATPase of Synechococcus sp. strain NKBG15041c, with a His-tag at the C-terminus (Synechococcus sp. strain NKBG15041c); experiment: SEC; HPLC gel filtration column SB-804HQ, 50 mM Tris-HCl pH 7.5, 0.1 mM EDTA, 150 mM NaCl, 0.5 mL/min; mass from marker proteins (apparent)
[4] = target: SyMRP, MoxR AAA+ ATPase of Synechococcus sp. strain NKBG15041c, with a His-tag at the C-terminus (Synechococcus sp. strain NKBG15041c); experiment: AUC; sedimentation velocity, 2.0 mg/mL SyMRP, 50 mM Tris-HCl pH 8.0, 200 mM NaCl, without ATP, 25 °C, 60,000 rpm, interference optics, SEDFIT
[5] = target: SyMRP, MoxR AAA+ ATPase of Synechococcus sp. strain NKBG15041c, with a His-tag at the C-terminus (Synechococcus sp. strain NKBG15041c); experiment: as above; remark: listed apart in the source
[6] = target: SyMRP, MoxR AAA+ ATPase of Synechococcus sp. strain NKBG15041c, with a His-tag at the C-terminus (Synechococcus sp. strain NKBG15041c); experiment: AUC; sedimentation velocity, 2.0 mg/mL SyMRP, 50 mM Tris-HCl pH 8.0, 200 mM NaCl, with 1 mM ATP, 25 °C, 60,000 rpm, interference optics, SEDFIT

- stoichiometry N [1]: 6
- stoichiometry N [2]: 6
- stoichiometry N [3]: 6
- stoichiometry N [4]: 6
- weight fraction w of the 4.18 S component (small oligomer) [4]: 4%
- weight fraction w of the 7.60 S component (hexamer) [4]: 91.4%
- stoichiometry N [5]: 2
- weight fraction w of the 4.26 S component (small oligomer) [6]: 2.6%
- weight fraction w of the 7.53 S component (main component) [6]: 90.9%
Substance: SyMRP, MoxR AAA+ ATPase of Synechococcus sp. strain NKBG15041c, with a His-tag at the C-terminus (enzyme)
